The target of assay [1] is human TNFR1 (soluble recombinant protein) (human) (UniProt P19438). As to the kind of experiment: phage ELISA on plate coated with 1 nM TNFR1, anti-M13-HRP; 0 µg/ml trypsin; phage input 1.13E+10. A general note: ELISA stands for enzyme-linked immunosorbent assay.
Assay [2] shares this target. As to the kind of experiment: phage ELISA on plate coated with 1 nM TNFR1, anti-M13-HRP; phage treated 1 h at room temperature with 10 µg/ml trypsin; phage input 1.13E+10.
For assay [3] the target is unchanged. As to the kind of experiment: phage ELISA on plate coated with 1 nM TNFR1, anti-M13-HRP; 0 µg/ml trypsin; phage input 3.52E+08.
Assay [4] has the same target. As to the kind of experiment: phage ELISA on plate coated with 1 nM TNFR1, anti-M13-HRP; phage treated 1 h at room temperature with 1 mg/ml trypsin; phage input 1.13E+10.
Assay [5] has the same target. As to the kind of experiment: phage ELISA on plate coated with 1 nM TNFR1, anti-M13-HRP; 0 µg/ml trypsin; phage input 1.41E+09.
Assay [6] shares this target. As to the kind of experiment: phage ELISA on plate coated with 1 nM TNFR1, anti-M13-HRP; phage treated 1 h at room temperature with 10 µg/ml trypsin; phage input 2.26E+10.
For assay [7] the target is unchanged. In words: phage ELISA on plate coated with 1 nM TNFR1, anti-M13-HRP; phage treated 1 h at room temperature with 10 µg/ml trypsin; phage input 5.64E+09.
Assay [8] shares this target. In words: phage ELISA on plate coated with 1 nM TNFR1, anti-M13-HRP; phage treated 1 h at room temperature with 1 mg/ml trypsin; phage input 4.51E+10.
The target is the same in assay [9]. As to the kind of experiment: phage ELISA on plate coated with 1 nM TNFR1, anti-M13-HRP; 0 µg/ml trypsin; phage input 5.64E+09.
Assay [10] has the same target. In words: phage ELISA on plate coated with 1 nM TNFR1, anti-M13-HRP; phage treated 1 h at room temperature with 100 µg/ml trypsin; phage input 4.51E+10.
Assay [11] has the same target. In words: phage ELISA on plate coated with 1 nM TNFR1, anti-M13-HRP; phage treated 1 h at room temperature with 1 mg/ml trypsin; phage input 5.64E+09.
Assay [12] shares this target. In words: phage ELISA on plate coated with 1 nM TNFR1, anti-M13-HRP; phage treated 1 h at room temperature with 100 µg/ml trypsin; phage input 3.52E+08.
For assay [13] the target is unchanged. As to the kind of experiment: phage ELISA on plate coated with 1 nM TNFR1, anti-M13-HRP; phage treated 1 h at room temperature with 10 µg/ml trypsin; phage input 4.51E+10.
Assay [14] shares this target. As to the kind of experiment: phage ELISA on plate coated with 1 nM TNFR1, anti-M13-HRP; phage treated 1 h at room temperature with 1 mg/ml trypsin; phage input 3.52E+08.
Assay [15] has the same target. As to the kind of experiment: phage ELISA on plate coated with 1 nM TNFR1, anti-M13-HRP; phage treated 1 h at room temperature with 100 µg/ml trypsin; phage input 2.26E+10.
For assay [16] the target is unchanged. As to the kind of experiment: phage ELISA on plate coated with 1 nM TNFR1, anti-M13-HRP; 0 µg/ml trypsin; phage input 2.82E+09.
The target is the same in assay [17]. In words: phage ELISA on plate coated with 1 nM TNFR1, anti-M13-HRP; phage treated 1 h at room temperature with 100 µg/ml trypsin; phage input 7.05E+08.
Assay [18] shares this target. As to the kind of experiment: phage ELISA on plate coated with 1 nM TNFR1, anti-M13-HRP; phage treated 1 h at room temperature with 1 mg/ml trypsin; phage input 1.41E+09.
For assay [19] the target is unchanged. In words: phage ELISA on plate coated with 1 nM TNFR1, anti-M13-HRP; phage treated 1 h at room temperature with 10 µg/ml trypsin; phage input 3.52E+08.
Assay [20] shares this target. In words: phage ELISA on plate coated with 1 nM TNFR1, anti-M13-HRP; phage treated 1 h at room temperature with 10 µg/ml trypsin; phage input 2.82E+09.
For assay [21] the target is unchanged. As to the kind of experiment: phage ELISA on plate coated with 1 nM TNFR1, anti-M13-HRP; phage treated 1 h at room temperature with 1 mg/ml trypsin; phage input 2.26E+10.
Assay [22] shares this target. In words: phage ELISA on plate coated with 1 nM TNFR1, anti-M13-HRP; phage treated 1 h at room temperature with 10 µg/ml trypsin; phage input 7.05E+08.
Assay [23] shares this target. As to the kind of experiment: phage ELISA on plate coated with 1 nM TNFR1, anti-M13-HRP; 0 µg/ml trypsin; phage input 4.51E+10.
Assay [24] has the same target. As to the kind of experiment: phage ELISA on plate coated with 1 nM TNFR1, anti-M13-HRP; phage treated 1 h at room temperature with 100 µg/ml trypsin; phage input 1.13E+10.
Assay [25] has the same target. As to the kind of experiment: phage ELISA on plate coated with 1 nM TNFR1, anti-M13-HRP; phage treated 1 h at room temperature with 100 µg/ml trypsin; phage input 1.41E+09.
Assay [26] has the same target. In words: phage ELISA on plate coated with 1 nM TNFR1, anti-M13-HRP; phage treated 1 h at room temperature with 100 µg/ml trypsin; phage input 5.64E+09.
The target is the same in assay [27]. As to the kind of experiment: phage ELISA on plate coated with 1 nM TNFR1, anti-M13-HRP; phage treated 1 h at room temperature with 1 mg/ml trypsin; phage input 2.82E+09.
Assay [28] has the same target. As to the kind of experiment: phage ELISA on plate coated with 1 nM TNFR1, anti-M13-HRP; 0 µg/ml trypsin; phage input 7.05E+08.
The target is the same in assay [29]. In words: phage ELISA on plate coated with 1 nM TNFR1, anti-M13-HRP; phage treated 1 h at room temperature with 1 mg/ml trypsin; phage input 7.05E+08.
The target is the same in assay [30]. As to the kind of experiment: phage ELISA on plate coated with 1 nM TNFR1, anti-M13-HRP; phage treated 1 h at room temperature with 10 µg/ml trypsin; phage input 1.41E+09.
For assay [31] the target is unchanged. In words: phage ELISA on plate coated with 1 nM TNFR1, anti-M13-HRP; phage treated 1 h at room temperature with 100 µg/ml trypsin; phage input 2.82E+09.
Assay [32] shares this target. As to the kind of experiment: phage ELISA on plate coated with 1 nM TNFR1, anti-M13-HRP; 0 µg/ml trypsin; phage input 2.26E+10.
A further assay deals with T1, TNFR1-FC fusion (human, UniProt P19438 22-211).
T1 construct: not shown: Fc part not described (captured with goat anti-human IgG (H&L))
T1 sequence (looked up): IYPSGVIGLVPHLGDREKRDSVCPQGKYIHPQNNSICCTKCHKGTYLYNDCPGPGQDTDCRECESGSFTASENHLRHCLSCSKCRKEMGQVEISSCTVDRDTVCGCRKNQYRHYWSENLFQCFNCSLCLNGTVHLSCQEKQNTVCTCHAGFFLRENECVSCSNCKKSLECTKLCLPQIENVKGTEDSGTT
As to the kind of experiment: human TNFR1 receptor binding assay: inhibition of the binding of TNF-alpha (10 ng/ml) to bead-captured TNFR1-Fc; four replicates.

In the case of DOM1h-131 phage, the phage ELISA signal was 0.949 in [1]; 0.86 in assay [2]; 0.577 in [3]; 0.183 in [4]; 0.85 in [5]; 0.802 in assay [6]. Also, the phage ELISA signal in assay [7] was 0.695; in assay [8] it was 0.284; in assay [9], 0.962; in assay [10] it was 0.418; in assay [11], 0.133; in assay [12], 0.084. For the same molecule, the phage ELISA signal in assay [13] was 0.784; in assay [14], 0.08; in assay [15] it was 0.377; in assay [16] it was 0.946; in [17], 0.084; in [18], 0.089. The phage ELISA signal in assay [19] was 0.213; in [20], 0.573; in assay [21], 0.229; in [22], 0.286; in assay [23], 0.916; in assay [24], 0.284. Further, the phage ELISA signal was 0.115 in assay [25]; 0.196 in [26]; 0.114 in assay [27]; 0.705 in assay [28]; 0.084 in assay [29]; 0.409 in assay [30]. Also, the figures for the phage ELISA signal in assay [31] and in [32] were 0.141 and 0.944, respectively.

B1: DOM1h-131-202 (other)
VH: EVQLLESGGGLVQPGGSLRLSCAASGFTFAHETMVWVRQAPGKGLEWVSHIPPDGQDPFYADSVKGRFTISRDNSKNTLYLQMNSLRAEDTAVYYCALLPKRGPWFDYWGQGTLVTVSS
notes: also called GSK1922567A
Regarding B1, the “IC50 (read off the curve)” value with TNFR1-FC fusion was roughly 0.2 nM.

The values are drawn from patent publication US20110086019A1 (DOMANTIS, published 2011).
